Test [1] addresses T1, human GITR (hGITR), glucocorticoid-induced TNF receptor (UniProt Q9Y5U5 26-241).
T1 chain: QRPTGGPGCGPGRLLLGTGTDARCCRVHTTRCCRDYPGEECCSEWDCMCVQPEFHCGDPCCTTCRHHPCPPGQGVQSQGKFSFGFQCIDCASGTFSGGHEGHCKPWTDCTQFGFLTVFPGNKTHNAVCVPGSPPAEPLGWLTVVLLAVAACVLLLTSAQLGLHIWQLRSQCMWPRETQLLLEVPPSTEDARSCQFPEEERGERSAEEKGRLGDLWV
The test can be described thus: SPR. (SPR reads the build-up and loss of mass on a sensor chip optically.)

For test [2], the target named is T2, human GITR (hGITR), glucocorticoid-induced TNF receptor (human, UniProt Q9Y5U5 26-241).
T2 construct: also called TNFRSF18
T2 sequence: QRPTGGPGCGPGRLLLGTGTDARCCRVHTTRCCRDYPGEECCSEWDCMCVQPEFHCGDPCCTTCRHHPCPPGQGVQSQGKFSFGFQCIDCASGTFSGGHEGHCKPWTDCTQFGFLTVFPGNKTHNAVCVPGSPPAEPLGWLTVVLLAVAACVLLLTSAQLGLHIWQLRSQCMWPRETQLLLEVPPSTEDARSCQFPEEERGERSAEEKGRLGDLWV
Nature of the test: FACS, L-M (mouse fibroblast) cells transfected with the GITR gene, 50 ul hybridoma supernatant. As to the method: FIG. 3 depicts a FACS analysis of L-M (mouse fibroblast) cells transfected with the GITR gene that were stained with 50 μl of supernatant fluid from GITR-expressing hybridoma cells. The GITR binding molecule stained GITR-transfected cells but not the untransfected L-M cells.

B1: 6C8 antibody (antibody, V domains shown)
VH: QVTLKESGPGILKPSQTLSLTCSFSGFSLSTSGMGVGWIRQPSGKGLEWLAHIWWDDDKYYNPSLKSQLTISKDTSRNQVFLKITSVDTADAATYYCARTRRYFPFAYWGQGTLVTVSS
VL: DIVMTQSQKFMSTSVGDRVSVTCKASQNVGTNVAWYQQKPGQSPKALIYSASYRYSGVPDRFTGSGSGTDFTLTINNVHSEDLAEYFCQQYNTDPLTFGAGTKLEIK
notes: also called anti-GITR
Turning to B1, in test [1], the Kd (in general, a measure of binding affinity in units of concentration) was 1.1 nM. The binding result in test [2] is listed as “binds”.

Values taken from patent publication US20070098719A1 (GITR, published 2007).
